According to the supplement of paper PMC12764529:
± gives the half width of the 95% confidence interval.

Legend:
[1] = folding stability dG unfold from trypsin proteolysis; higher = more stable
How it was run: (§1)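 Mini-proteins designed to be under 80 residues and free of cysteine were carried in a PA-tagged cDNA display construct and digested with trypsin and with chymotrypsin. Each protease was applied at 11 threefold-diluted concentrations, alongside a no-protease condition, before sequencing. K50 came from Bayesian fitting of the sequencing counts, and unfolding free energy was obtained by comparing it with a sequence-predicted unfolded-state K50 and a shared folded-state K50, for each protease separately or for both together. Designs were retained only if their AlphaFold2 dimer inter-PAE exceeded 15.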

[2] = folding stability dG unfold from chymotrypsin proteolysis; higher = more stable
How it was run: as §1

[3] = folding stability dG unfold (combined trypsin and chymotrypsin); higher = more stable
How it was run: as §1

Row | Sequence | folding stability dG unfold [1] | folding stability dG unfold [2] | folding stability dG unfold [3]
1 | SAGGSAGGSAGGSGVSITTTLPVKTTVLQPFNTFENKLLLKEVEKTILTTVTLTLPPLLSAGGSAGGSAGGS [r4_326_JUSTAS] | 0.316 ± 0.068 kcal/mol | -0.0828 ± 0.29 kcal/mol | 0.148 ± 0.21 kcal/mol
2 | SAGGSAGGSAGGSIVVETKKNPGPERVVTVKLPDGTPLADVPVSPDEDPEEAVKRALELGSAGGSAGGSAGG [r7_444_JUSTAS] | 0.0908 ± 0.071 kcal/mol | 0.305 ± 0.037 kcal/mol | 0.386 ± 0.17 kcal/mol
3 | SAGGSAGGSAGGSKEIKVEVEEKDGKLTVTVTFPDGSKVEIEGMSAEEVEKLVKELAKKSAGGSAGGSAGGS [r4_383_TrROS_Hall] | 1.4 ± 0.061 kcal/mol | 2.36 ± 0.1 kcal/mol | 2.06 ± 0.061 kcal/mol
4 | SAGGSAGGSAGGSKIYKLKVNGSVEKLIENLKKAGFKVEILSVYYDPETKELYVLFKISSAGGSAGGSAGGS [r4_315_TrMRF] | 3.85 ± 0.1 kcal/mol | 4.57 ± 0.068 kcal/mol | 4.32 ± 0.079 kcal/mol
5 | SAGGSAGGSAGGSKKEKYYLVTRIEVEVNGKKYPLGSKLPKNLPPGAKIKIETRIVKLDSAGGSAGGSAGGS [r4_436_TrROS_Hall] | 2.35 ± 0.15 kcal/mol | 1.58 ± 0.071 kcal/mol | 1.83 ± 0.25 kcal/mol
6 | SAGGSAGGSAGGSKKKIKIYIENENGEKKTIEIEVEGDIDEIAKELAKKYNVKIVKIEPSAGGSAGGSAGGS [r4_412_TrROS_Hall] | 2.77 ± 0.11 kcal/mol | 3.16 ± 0.081 kcal/mol | 3.05 ± 0.05 kcal/mol
7 | SAGGSAGGSAGGSKKTIKVRIKIEVDGKTYEITVELPEEGMSLEELLKKFPNAKITEIESAGGSAGGSAGGS [r4_278_TrROS_Hall] | 3.15 ± 0.26 kcal/mol | 3.08 ± 0.17 kcal/mol | 3.22 ± 0.23 kcal/mol
8 | SAGGSAGGSAGGSKKYKAKIVSVEYDEETKEVTIKVKLENGEEKTITMSLEELKEIELPSAGGSAGGSAGGS [r4_51_TrROS_Hall] | 1.97 ± 0.081 kcal/mol | 3.15 ± 0.033 kcal/mol | 2.77 ± 0.079 kcal/mol
9 | SAGGSAGGSAGGSKLPEGAKITITKNEDGSYTLTVTFPNGEKVEITMSEDELKKLLEALSAGGSAGGSAGGS [r4_16_TrROS_Hall] | 3.84 ± 0.15 kcal/mol | 3.64 ± 0.11 kcal/mol | 3.79 ± 0.14 kcal/mol
10 | SAGGSAGGSAGGSKNKKIKLGPEVKIKVKIEAKLEGGYSSENGLPEFKLDVKLEIGEVESAGGSAGGSAGGS [r10_877_TrMRF] | 0.727 ± 0.068 kcal/mol | 1.09 ± 0.13 kcal/mol | 0.94 ± 0.26 kcal/mol
11 | SAGGSAGGSAGGSKPKKIKVETVTLEDGLTLQVVVNEDTKEKVIVLVPPSEEVTVLVEPSAGGSAGGSAGGS [r4_99_TrROS_Hall] | -0.249 ± 0.31 kcal/mol | 1.11 ± 0.076 kcal/mol | 0.648 ± 0.15 kcal/mol
12 | SAGGSAGGSAGGSKPKMYILKIKIKVEVKYDKETNEIVEEEIEIEIEIIEVKPGEKLELSAGGSAGGSAGGS [r4_175_TrROS_Hall] | 1.42 ± 0.13 kcal/mol | 3.28 ± 0.092 kcal/mol | 2.52 ± 0.35 kcal/mol
13 | SAGGSAGGSAGGSKTKAELFKVGDKLILATYHPDTGKVEIFYPDNSVETLPAEEAEKLFSAGGSAGGSAGGS [r10_1140_TrMRF] | 1.02 ± 0.052 kcal/mol | 0.957 ± 0.13 kcal/mol | 1.03 ± 0.14 kcal/mol
14 | SAGGSAGGSAGGSKTLTPEEIKKLLDEAKKKGYKTVKITVKNKNGKTYTFTIKIPKEDLSAGGSAGGSAGGS [r4_342_TrROS_Hall] | 2.76 ± 0.18 kcal/mol | 3.13 ± 0.079 kcal/mol | 2.95 ± 0.23 kcal/mol
15 | SAGGSAGGSAGGSLELTFLLEDGTLAKVRIELNEDGELSISVELFELPAPEPVEVRFYPESAGGSAGGSAGG [r7_79_TrROS_Hall] | 1.42 ± 0.051 kcal/mol | 2.8 ± 0.084 kcal/mol | 2.42 ± 0.18 kcal/mol
16 | SAGGSAGGSAGGSLKVEVTLDPETNELTVRTTLTLPPPPPPPPTTTTTTTTTLAPGETASAGGSAGGSAGGS [r10_86_TrROS_Hall] | -0.349 ± 0.43 kcal/mol | 0.776 ± 0.22 kcal/mol | 0.0927 ± 0.38 kcal/mol
17 | SAGGSAGGSAGGSMELIPTPEDTVTVVETTPVAPTPNGTPVPATVTTTTLPKEEVEAAASAGGSAGGSAGGS [r4_238_JUSTAS] | 2.71 ± 0.057 kcal/mol | 1.53 ± 0.03 kcal/mol | 2.1 ± 0.062 kcal/mol
18 | SAGGSAGGSAGGSMIVEEDPVGPEKVTTVTLPEKDKLVTVTETFLPDGSVVTTTTPVPSSAGGSAGGSAGGS [r4_332_JUSTAS] | 1.8 ± 0.17 kcal/mol | 2 ± 0.25 kcal/mol | 1.96 ± 0.13 kcal/mol

Row | Sequence | folding stability dG unfold [1] | folding stability dG unfold [2] | folding stability dG unfold [3]
19 | SAGGSAGGSAGGSMIVLRMSADEIKKLLPPGAKIKKIEYDEETDEVYVIIEFDKDGKIISAGGSAGGSAGGS [r4_435_TrROS_Hall] | 1.53 ± 0.028 kcal/mol | 1.32 ± 0.092 kcal/mol | 1.49 ± 0.069 kcal/mol
20 | SAGGSAGGSAGGSMKIELPEGAEITEIKKLPNGTYEMTIRVDGKELKIRFVDGKLVIVPSAGGSAGGSAGGS [r4_280_TrROS_Hall] | 3.62 ± 0.14 kcal/mol | 3.51 ± 0.057 kcal/mol | 3.56 ± 0.077 kcal/mol
21 | SAGGSAGGSAGGSMKITKTLIPETGLYKVTITLPGGKPVEIEAPPSSSLEEVKKKAEKLSAGGSAGGSAGGS [r4_205_JUSTAS] | -0.116 ± 0.12 kcal/mol | -0.169 ± 0.26 kcal/mol | -0.145 ± 0.26 kcal/mol
22 | SAGGSAGGSAGGSMKIYKITVKKEDSELEFYVSDDVPAEVAANILKALYPDVEVKIEEGSAGGSAGGSAGGS [r4_155_TrMRF] | 1.25 ± 0.048 kcal/mol | 1.1 ± 0.1 kcal/mol | 1.11 ± 0.15 kcal/mol
23 | SAGGSAGGSAGGSMKLNITVTLPDGTPITLTFPVDKIEEILKEAGLENISPELITKIEPISAGGSAGGSAGG [r7_745_JUSTAS] | 1.33 ± 0.034 kcal/mol | 1.39 ± 0.026 kcal/mol | 1.37 ± 0.051 kcal/mol
24 | SAGGSAGGSAGGSMKYITITETTEEEVLVLYYDPETGEPVREEKVLRTVTKTRTLPPDLKSAGGSAGGSAGG [r7_573_JUSTAS] | -0.236 ± 0.23 kcal/mol | 0.434 ± 0.19 kcal/mol | 0.189 ± 0.14 kcal/mol
25 | SAGGSAGGSAGGSMLVEKKTFKDPKTGKTYIEIVIKDENGNLLSVKILSTEDPEKIEKLLSAGGSAGGSAGG [r7_484_JUSTAS] | 2.15 ± 0.12 kcal/mol | 2.55 ± 0.037 kcal/mol | 2.37 ± 0.15 kcal/mol
26 | SAGGSAGGSAGGSMLVRFPDKDVLSDGSEAEAERLAEELAAAGRPVELEFISPEEAAARSAGGSAGGSAGGS [r4_131_JUSTAS] | -0.225 ± 0.21 kcal/mol | -0.83 ± 0.32 kcal/mol | -0.424 ± 0.31 kcal/mol
27 | SAGGSAGGSAGGSMPIVRIEVKHPDQKHTFFIPPDMPLEDIADELASQYPNVEVKIEPVSAGGSAGGSAGGS [r4_155_TrROS] | 0.355 ± 0.091 kcal/mol | 1.33 ± 0.11 kcal/mol | 0.935 ± 0.21 kcal/mol
28 | SAGGSAGGSAGGSMPTYRITVEVDGKKYTITVREGMSPEEIAKRLKELYPNLTVKIEPVSAGGSAGGSAGGS [r4_155_TrROS_Hall] | 3.75 ± 0.13 kcal/mol | 4.07 ± 0.15 kcal/mol | 4.04 ± 0.13 kcal/mol
29 | SAGGSAGGSAGGSMSSTVTTTLVEVGPPNGKRVLVRRTTTTFPDGSVTTTVTVLSTTIASAGGSAGGSAGGS [r4_496_JUSTAS] | 1.84 ± 0.027 kcal/mol | 2.61 ± 0.033 kcal/mol | 2.37 ± 0.063 kcal/mol
30 | SAGGSAGGSAGGSMSTVFVSTLTLPDPSGLSTVLTTTVEIDPEGNAHPVTSTEEVSAAASAGGSAGGSAGGS [r4_80_JUSTAS] | 0.716 ± 0.022 kcal/mol | 0.33 ± 0.089 kcal/mol | 0.652 ± 0.079 kcal/mol
31 | SAGGSAGGSAGGSMTLKVTLTPPSGEVVEFEITEEELDKLKEELPEDWSISTEPIPELESAGGSAGGSAGGS [r4_63_JUSTAS] | 2.43 ± 0.07 kcal/mol | 2.132 ± 0.016 kcal/mol | 2.29 ± 0.051 kcal/mol
32 | SAGGSAGGSAGGSMVTLTVEKTFTSLLKTPESELIPVTSTVTEEVTIPESEATEELIKELSAGGSAGGSAGG [r7_777_JUSTAS] | 0.388 ± 0.054 kcal/mol | -0.0189 ± 0.23 kcal/mol | 0.399 ± 0.2 kcal/mol
33 | SAGGSAGGSAGGSMVVEYDPETGVRTTTVALPSDSVEVTTEKIDPATGEVVETVTELAASAGGSAGGSAGGS [r4_415_JUSTAS] | -0.105 ± 0.027 kcal/mol | 0.634 ± 0.048 kcal/mol | 0.358 ± 0.086 kcal/mol
34 | SAGGSAGGSAGGSMYIKIPGEPGDLREVVIEGKKVKVTPDANNPDKVTYTLPDGTKIALSAGGSAGGSAGGS [r4_488_JUSTAS] | 0.117 ± 0.064 kcal/mol | 0.957 ± 0.14 kcal/mol | 0.638 ± 0.073 kcal/mol
35 | SAGGSAGGSAGGSMYTLLSTENRPDPNSSKPVTTKTYKLPDGSTVVVTEYPDSVEEKPLVSAGGSAGGSAGG [r7_479_JUSTAS] | -0.00111 ± 0.087 kcal/mol | -0.122 ± 0.63 kcal/mol | 0.182 ± 0.25 kcal/mol
36 | SAGGSAGGSAGGSNPVDIVEILSYDPEKNTYTFLVKLPDGSTKTITVPGLSVEEIKKELSAGGSAGGSAGGS [r4_357_JUSTAS] | 1.57 ± 0.083 kcal/mol | 3.276 ± 0.029 kcal/mol | 2.86 ± 0.085 kcal/mol
